In paper PMC1976466 (Nucleic Acids Research, 2007):

Experiments:
human topoisomerase IIα = human topoisomerase IIα (human, UniProt P11388 1-1531); experiment: pull-down
[1] = biological target: DNA topoisomerase II alpha (Homo sapiens, UniProt P11388 1-1531); experiment: EMSA
Sequence of DNA topoisomerase II alpha (P11388 whole entry): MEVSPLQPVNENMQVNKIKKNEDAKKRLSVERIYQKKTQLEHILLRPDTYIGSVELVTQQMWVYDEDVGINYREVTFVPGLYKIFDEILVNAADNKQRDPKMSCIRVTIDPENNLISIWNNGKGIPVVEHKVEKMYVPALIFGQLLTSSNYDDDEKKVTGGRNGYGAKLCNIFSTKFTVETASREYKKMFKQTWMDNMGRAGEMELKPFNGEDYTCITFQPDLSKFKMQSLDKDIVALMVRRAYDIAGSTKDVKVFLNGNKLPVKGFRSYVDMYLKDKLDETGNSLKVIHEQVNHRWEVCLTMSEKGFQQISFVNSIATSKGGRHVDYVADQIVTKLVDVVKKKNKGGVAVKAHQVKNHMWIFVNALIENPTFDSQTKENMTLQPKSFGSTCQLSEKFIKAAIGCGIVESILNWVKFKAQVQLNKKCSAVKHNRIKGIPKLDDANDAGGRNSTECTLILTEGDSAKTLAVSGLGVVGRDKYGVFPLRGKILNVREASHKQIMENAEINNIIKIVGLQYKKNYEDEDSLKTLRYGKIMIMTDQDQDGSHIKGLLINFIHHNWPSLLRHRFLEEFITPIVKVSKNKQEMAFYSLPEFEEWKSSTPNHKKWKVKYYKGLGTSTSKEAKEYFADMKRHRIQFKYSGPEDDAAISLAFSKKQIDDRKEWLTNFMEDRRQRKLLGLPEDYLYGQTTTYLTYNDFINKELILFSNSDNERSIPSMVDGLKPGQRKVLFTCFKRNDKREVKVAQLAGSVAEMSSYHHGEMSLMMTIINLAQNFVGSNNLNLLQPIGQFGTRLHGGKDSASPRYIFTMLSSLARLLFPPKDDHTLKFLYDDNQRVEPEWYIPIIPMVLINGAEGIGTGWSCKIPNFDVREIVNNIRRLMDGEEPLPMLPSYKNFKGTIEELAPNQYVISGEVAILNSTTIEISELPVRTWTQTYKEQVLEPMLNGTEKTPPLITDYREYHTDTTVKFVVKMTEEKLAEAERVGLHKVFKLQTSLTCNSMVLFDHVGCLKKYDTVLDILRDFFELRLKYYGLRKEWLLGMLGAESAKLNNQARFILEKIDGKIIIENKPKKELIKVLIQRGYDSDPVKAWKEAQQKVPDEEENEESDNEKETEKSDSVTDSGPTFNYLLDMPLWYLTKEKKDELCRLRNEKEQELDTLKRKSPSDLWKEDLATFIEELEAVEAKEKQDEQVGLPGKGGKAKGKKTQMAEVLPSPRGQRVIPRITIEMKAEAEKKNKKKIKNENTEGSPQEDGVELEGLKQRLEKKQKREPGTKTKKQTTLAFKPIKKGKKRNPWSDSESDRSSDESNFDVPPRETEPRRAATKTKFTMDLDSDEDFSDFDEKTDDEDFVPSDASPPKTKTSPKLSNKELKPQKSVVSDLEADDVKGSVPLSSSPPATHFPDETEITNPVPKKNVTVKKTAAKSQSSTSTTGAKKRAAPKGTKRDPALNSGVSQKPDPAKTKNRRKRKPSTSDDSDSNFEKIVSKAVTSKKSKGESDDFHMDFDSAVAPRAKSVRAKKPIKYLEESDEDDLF

Sequence of human topoisomerase IIα (P11388 whole entry): as above

Row | Binder | binding result (human topoisomerase IIα) | binding signal [1]
1 | GST-HMGB1 domain B (residues 85-180) (domain or fragment, rat, UniProt P63159 85-180, looked up) TKKKFKDPNAPKRPPSAFFLFCSEYRPKIKGEHPGLSIGDVAKKLGEMWNNTAADDKQPYEKKAAKLKEKYEKDIAAYRAKGKPDAAKKGVVKAEK | binds | 
2 | 36-bp duplex oligo_1/oligo_2 (dsDNA) DNA 1: ATGAAATCTAACAATGCGCTCATCGTCATCCTCGGC DNA 2: GCCGAGGATGACGATGAGCGCATTGTTAGATTTCAT |  | ~10 fold increase in topo IIα binding vs no HMGB1 (up to)

Second part, led by results:

Row | binding result (human topoisomerase IIα) | Binder | binding signal [1]
3 | binds | GST-HMGB1 domain A (residues 1-88) (domain or fragment, rat, UniProt P63159 1-88, looked up) MGKGDPKKPRGKMSSYAFFVQTCREEHKKKHPDASVNFSEFSKKCSERWKTMSAKEKGKFEDMAKADKARYEREMKTYIPPKGETKKK | 
4 | binds | GST-HMGB1-ΔC (HMGB1 di-domain A+B, residues 1-180) (domain or fragment, rat, UniProt P63159 1-180, looked up) MGKGDPKKPRGKMSSYAFFVQTCREEHKKKHPDASVNFSEFSKKCSERWKTMSAKEKGKFEDMAKADKARYEREMKTYIPPKGETKKKFKDPNAPKRPPSAFFLFCSEYRPKIKGEHPGLSIGDVAKKLGEMWNNTAADDKQPYEKKAAKLKEKYEKDIAAYRAKGKPDAAKKGVVKAEK | 
